Source: article PMC11417369, “DNA sequence and chromatin differentiate sequence-specific transcription factor binding in the human malaria parasite Plasmodium falciparum”

B1: GTGCAC_negctrl_site266 (dsDNA)
DNA 1: AATCAATATAAATAAAATTTTTAATTTTAACCCTAA
DNA 2: TTAGGGTTAAAATTAAAAATTTTATTTATATTGATT
B2: GTGCAC_negctrl_site440 (dsDNA)
DNA 1: TTTTTTATTCCATAATATAATATGTTTTGAAATTTG
DNA 2: CAAATTTCAAAACATATTATATTATGGAATAAAAAA
B3: GTGCAC_negctrl_site199 (dsDNA)
DNA 1: AAAATTATATTTTATAGAAATTTAAATAAATATATA
DNA 2: TATATATTTATTTAAATTTCTATAAAATATAATTTT
B4: GTGCAC_negctrl_site36 (dsDNA)
DNA 1: TTATGTGATAAAAAAAAAATACAACAAAGTTAAATA
DNA 2: TATTTAACTTTGTTGTATTTTTTTTTTATCACATAA
B5: GTGCAC_negctrl_site428 (dsDNA)
DNA 1: AATATATGTATATATTTTTTTTTTTCCCTTACAAAT
DNA 2: ATTTGTAAGGGAAAAAAAAAAATATATACATATATT
B6: GTGCAC_negctrl_site329 (dsDNA)
DNA 1: TTTTTTTCTTTTTCAAAAAAAAAAAAAAAAAAAATA
DNA 2: TATTTTTTTTTTTTTTTTTTTTGAAAAAGAAAAAAA
B7: GTGCAC_negctrl_site636 (dsDNA)
DNA 1: TTTTGTTGAAAAAAAAAAAAAAAATTAAATTAAATT
DNA 2: AATTTAATTTAATTTTTTTTTTTTTTTTCAACAAAA
B8: GTGCAC_negctrl_site724 (dsDNA)
DNA 1: TCCTCAAAAAAATAAAATAATTTATACTTTTTTAAA
DNA 2: TTTAAAAAAGTATAAATTATTTTATTTTTTTGAGGA
B9: GTGCAC_negctrl_site308 (dsDNA)
DNA 1: TAATAATAGTACTGACATCAAAATCTTATTAAAAAT
DNA 2: ATTTTTAATAAGATTTTGATGTCAGTACTATTATTA
B10: GTGCAC_site10094 (dsDNA)
DNA 1: TATTAACAAATTTATGTGCACTGAGGACAAATATAT
DNA 2: ATATATTTGTCCTCAGTGCACATAAATTTGTTAATA
B11: GTGCAC_negctrl_site376 (dsDNA)
DNA 1: AACAGAATAATACTAAATGAACGATTTCTCTTTATG
DNA 2: CATAAAGAGAAATCGTTCATTTAGTATTATTCTGTT
B12: GTGCAC_negctrl_site521 (dsDNA)
DNA 1: AGTGGAATGTATGATTTTCATTCCTTAAAATTTTAA
DNA 2: TTAAAATTTTAAGGAATGAAAATCATACATTCCACT
B13: GTGCAC_site9533 (dsDNA)
DNA 1: TTTTCTATTTAATTGGTGCACTGATATATACACATA
DNA 2: TATGTGTATATATCAGTGCACCAATTAAATAGAAAA
B14: GTGCAC_negctrl_site61 (dsDNA)
DNA 1: TGTTTTTTGTTCTTTACAAAAAAAAAAAAAAAAAAA
DNA 2: TTTTTTTTTTTTTTTTTTTGTAAAGAACAAAAAACA
B15: GTGCAC_negctrl_site104 (dsDNA)
DNA 1: TTTTTTTTTTCTTTTTTTTATTATATTAACGGAATT
DNA 2: AATTCCGTTAATATAATAAAAAAAAGAAAAAAAAAA
B16: GTGCAC_negctrl_site631 (dsDNA)
DNA 1: AGAAGGTAAATAATTTACCCATATATATAAATATAT
DNA 2: ATATATTTATATATATGGGTAAATTATTTACCTTCT
B17: GTGCAC_negctrl_site626 (dsDNA)
DNA 1: AAAATATAAATATATTTGAACATGGATCAAATGTAA
DNA 2: TTACATTTGATCCATGTTCAAATATATTTATATTTT
B18: GTGCAC_site10490 (dsDNA)
DNA 1: TTTATATTTATTGTTGTGCACAGAACCATATTCGTT
DNA 2: AACGAATATGGTTCTGTGCACAACAATAAATATAAA

Biological target: T1, HDP1 homeodomain-like (Plasmodium falciparum, UniProt Q8IKH4 2990-3078)
T1 sequence: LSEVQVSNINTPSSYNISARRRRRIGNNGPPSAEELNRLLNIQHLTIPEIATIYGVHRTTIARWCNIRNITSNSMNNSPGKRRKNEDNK
Assay: gcPBM; about 25 ug protein; PBS, 1% milk, 0.2 mg/ml BSA, salmon testes DNA, 0.03% Triton X-100
Details: tags: N-terminal GST (pGEX-4T-1), kept; chain copies: 2; label: surface-attached array probe

Binder	binding signal
B1	6.24 ln median PBM intensity, better of two orientations
B2	6.16 ln median PBM intensity, better of two orientations
B3	6 ln median PBM intensity, better of two orientations
B4	6.32 ln median PBM intensity, better of two orientations
B5	6.17 ln median PBM intensity, better of two orientations
B6	5.41 ln median PBM intensity, better of two orientations
B7	5.87 ln median PBM intensity, better of two orientations
B8	6.01 ln median PBM intensity, better of two orientations
B9	5.97 ln median PBM intensity, better of two orientations
B10	10.3 ln median PBM intensity, better of two orientations
B11	5.96 ln median PBM intensity, better of two orientations
B12	5.94 ln median PBM intensity, better of two orientations
B13	10.5 ln median PBM intensity, better of two orientations
B14	6.15 ln median PBM intensity, better of two orientations
B15	6.2 ln median PBM intensity, better of two orientations
B16	6.21 ln median PBM intensity, better of two orientations
B17	6.08 ln median PBM intensity, better of two orientations
B18	11.1 ln median PBM intensity, better of two orientations

Biological target: T2, SIP2 D1 (Plasmodium falciparum, UniProt C6KSN9 177-235)
T2 sequence: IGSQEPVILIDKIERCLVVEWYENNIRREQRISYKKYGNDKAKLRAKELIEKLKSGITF
Assay: as above
Details: tags: N-terminal GST (pGEX-4T-1), kept; label: surface-attached array probe

Binder	binding signal
B1	6.64 ln median PBM intensity, better of two orientations
B2	6.8 ln median PBM intensity, better of two orientations
B3	6.79 ln median PBM intensity, better of two orientations
B4	6.76 ln median PBM intensity, better of two orientations
B5	6.66 ln median PBM intensity, better of two orientations
B6	6.85 ln median PBM intensity, better of two orientations
B7	6.63 ln median PBM intensity, better of two orientations
B8	6.79 ln median PBM intensity, better of two orientations
B9	6.81 ln median PBM intensity, better of two orientations
B10	10.5 ln median PBM intensity, better of two orientations
B11	6.78 ln median PBM intensity, better of two orientations
B12	6.55 ln median PBM intensity, better of two orientations
B13	11.6 ln median PBM intensity, better of two orientations
B14	6.89 ln median PBM intensity, better of two orientations
B15	6.89 ln median PBM intensity, better of two orientations
B16	6.91 ln median PBM intensity, better of two orientations
B17	6.71 ln median PBM intensity, better of two orientations
B18	10.4 ln median PBM intensity, better of two orientations
